Target: T1, MHC class I molecule A*0101 (biotin (bound to streptavidin-coated plate))
T1 construct: iTopia monomer stripped of placeholder peptide and b2M, then reconstituted with test peptide and fresh b2M; also called A1; HLA-A1
Assay: iTopia peptide binding assay
Method in brief: (§1)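 Plates coated with MHC class I molecules used to test 9-mer peptides for binding under standardized optimal conditions via the iTopia Epitope Discovery System. Read by ELISA in duplicate with allele-specific positive controls; binders taken on to affinity and off-rate testing.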

| Binder | binding, % of positive control peptide |
| --- | --- |
| DCDPILPPS [5T4 9-mer peptide 172 (DCDPILPPS)] | 0 % of positive control |
| DPILPPSLQ [5T4 9-mer peptide 173 (DPILPPSLQ)] | 0 % of positive control |
| ETEVVQGKD [5T4 9-mer peptide 156 (ETEVVQGKD)] | 0 % of positive control |
| LELNSADLD [5T4 9-mer peptide 168 (LELNSADLD)] | 0 % of positive control |
| ACRDHMEGY [5T4 9-mer peptide 196 (ACRDHMEGY)] | 3 % of positive control |
| RDHMEGYHY [5T4 9-mer peptide 197 (RDHMEGYHY)] | 11 % of positive control |
| LGIVLALIG [5T4 9-mer peptide 180 (LGIVLALIG)] | 0 % of positive control |
| LTCAYPEKM [5T4 9-mer peptide 161 (LTCAYPEKM)] | 16 % of positive control |
| CAYPEKMRN [5T4 9-mer peptide 162 (CAYPEKMRN)] | 0 % of positive control |
| INADPRLTN [5T4 9-mer peptide 203 (INADPRLTN)] | 0 % of positive control |
| LNSADLDCD [5T4 9-mer peptide 169 (LNSADLDCD)] | 0 % of positive control |
| GAIFLLVLY [5T4 9-mer peptide 184 (GAIFLLVLY)] | 0 % of positive control |
| DLDCDPILP [5T4 9-mer peptide 171 (DLDCDPILP)] | 0 % of positive control |
| YHYRYEINA [5T4 9-mer peptide 200 (YHYRYEINA)] | 0 % of positive control |
| IFLLVLYLN [5T4 9-mer peptide 185 (IFLLVLYLN)] | 0 % of positive control |
| KGIKKWMHN [5T4 9-mer peptide 190 (KGIKKWMHN)] | 3 % of positive control |
| MRNRVLLEL [5T4 9-mer peptide 165 (MRNRVLLEL)] | 0 % of positive control |
| PRLTNLSSN [5T4 9-mer peptide 205 (PRLTNLSSN)] | 2 % of positive control |
| YRYEINADP [5T4 9-mer peptide 201 (YRYEINADP)] | 0 % of positive control |
| GKDRLTCAY [5T4 9-mer peptide 159 (GKDRLTCAY)] | 3 % of positive control |
| SADLDCDPI [5T4 9-mer peptide 170 (SADLDCDPI)] | 0 % of positive control |
| DRLTCAYPE [5T4 9-mer peptide 160 (DRLTCAYPE)] | 0 % of positive control |
| EGYHYRYEI [5T4 9-mer peptide 199 (EGYHYRYEI)] | 0 % of positive control |
| NIRDACRDH [5T4 9-mer peptide 194 (NIRDACRDH)] | 0 % of positive control |
| VQGKDRLTC [5T4 9-mer peptide 158 (VQGKDRLTC)] | 0 % of positive control |

Target: T2, MHC class I molecule A*0201 (biotin (bound to streptavidin-coated plate))
T2 construct: iTopia monomer stripped of placeholder peptide and b2M, then reconstituted with test peptide and fresh b2M; also called A2; HLA-A2
Assay: iTopia peptide binding assay
Method in brief: as §1

| Binder | binding, % of positive control peptide |
| --- | --- |
| DCDPILPPS [5T4 9-mer peptide 172 (DCDPILPPS)] | 0 % of positive control |
| DPILPPSLQ [5T4 9-mer peptide 173 (DPILPPSLQ)] | 7 % of positive control |
| ETEVVQGKD [5T4 9-mer peptide 156 (ETEVVQGKD)] | 1 % of positive control |
| LELNSADLD [5T4 9-mer peptide 168 (LELNSADLD)] | 3 % of positive control |
| ACRDHMEGY [5T4 9-mer peptide 196 (ACRDHMEGY)] | 8 % of positive control |
| RDHMEGYHY [5T4 9-mer peptide 197 (RDHMEGYHY)] | 6 % of positive control |
| LGIVLALIG [5T4 9-mer peptide 180 (LGIVLALIG)] | 10 % of positive control |
| LTCAYPEKM [5T4 9-mer peptide 161 (LTCAYPEKM)] | 40 % of positive control |
| CAYPEKMRN [5T4 9-mer peptide 162 (CAYPEKMRN)] | 11 % of positive control |
| INADPRLTN [5T4 9-mer peptide 203 (INADPRLTN)] | 3 % of positive control |
| LNSADLDCD [5T4 9-mer peptide 169 (LNSADLDCD)] | 0 % of positive control |
| GAIFLLVLY [5T4 9-mer peptide 184 (GAIFLLVLY)] | 5 % of positive control |
| DLDCDPILP [5T4 9-mer peptide 171 (DLDCDPILP)] | 0 % of positive control |
| YHYRYEINA [5T4 9-mer peptide 200 (YHYRYEINA)] | 7 % of positive control |
| IFLLVLYLN [5T4 9-mer peptide 185 (IFLLVLYLN)] | 8 % of positive control |
| KGIKKWMHN [5T4 9-mer peptide 190 (KGIKKWMHN)] | 14 % of positive control |
| MRNRVLLEL [5T4 9-mer peptide 165 (MRNRVLLEL)] | 6 % of positive control |
| PRLTNLSSN [5T4 9-mer peptide 205 (PRLTNLSSN)] | 8 % of positive control |
| YRYEINADP [5T4 9-mer peptide 201 (YRYEINADP)] | 0 % of positive control |
| GKDRLTCAY [5T4 9-mer peptide 159 (GKDRLTCAY)] | 6 % of positive control |
| SADLDCDPI [5T4 9-mer peptide 170 (SADLDCDPI)] | 4 % of positive control |
| DRLTCAYPE [5T4 9-mer peptide 160 (DRLTCAYPE)] | 6 % of positive control |
| EGYHYRYEI [5T4 9-mer peptide 199 (EGYHYRYEI)] | 9 % of positive control |
| NIRDACRDH [5T4 9-mer peptide 194 (NIRDACRDH)] | 1 % of positive control |
| VQGKDRLTC [5T4 9-mer peptide 158 (VQGKDRLTC)] | 4 % of positive control |

Target: T3, MHC class I molecule A*0301 (biotin (bound to streptavidin-coated plate))
T3 construct: iTopia monomer stripped of placeholder peptide and b2M, then reconstituted with test peptide and fresh b2M; also called A3; HLA-A3
Assay: iTopia peptide binding assay
Method in brief: as §1

| Binder | binding, % of positive control peptide |
| --- | --- |
| DCDPILPPS [5T4 9-mer peptide 172 (DCDPILPPS)] | 3 % of positive control |
| DPILPPSLQ [5T4 9-mer peptide 173 (DPILPPSLQ)] | 4 % of positive control |
| ETEVVQGKD [5T4 9-mer peptide 156 (ETEVVQGKD)] | 3 % of positive control |
| LELNSADLD [5T4 9-mer peptide 168 (LELNSADLD)] | 5 % of positive control |
| ACRDHMEGY [5T4 9-mer peptide 196 (ACRDHMEGY)] | 4 % of positive control |
| RDHMEGYHY [5T4 9-mer peptide 197 (RDHMEGYHY)] | 3 % of positive control |
| LGIVLALIG [5T4 9-mer peptide 180 (LGIVLALIG)] | 1 % of positive control |
| LTCAYPEKM [5T4 9-mer peptide 161 (LTCAYPEKM)] | 8 % of positive control |
| CAYPEKMRN [5T4 9-mer peptide 162 (CAYPEKMRN)] | 4 % of positive control |
| INADPRLTN [5T4 9-mer peptide 203 (INADPRLTN)] | 1 % of positive control |
| LNSADLDCD [5T4 9-mer peptide 169 (LNSADLDCD)] | 3 % of positive control |
| GAIFLLVLY [5T4 9-mer peptide 184 (GAIFLLVLY)] | 5 % of positive control |
| DLDCDPILP [5T4 9-mer peptide 171 (DLDCDPILP)] | 4 % of positive control |
| YHYRYEINA [5T4 9-mer peptide 200 (YHYRYEINA)] | 1 % of positive control |
| IFLLVLYLN [5T4 9-mer peptide 185 (IFLLVLYLN)] | 0 % of positive control |
| KGIKKWMHN [5T4 9-mer peptide 190 (KGIKKWMHN)] | 3 % of positive control |
| MRNRVLLEL [5T4 9-mer peptide 165 (MRNRVLLEL)] | 4 % of positive control |
| PRLTNLSSN [5T4 9-mer peptide 205 (PRLTNLSSN)] | 2 % of positive control |
| YRYEINADP [5T4 9-mer peptide 201 (YRYEINADP)] | 1 % of positive control |
| GKDRLTCAY [5T4 9-mer peptide 159 (GKDRLTCAY)] | 6 % of positive control |
| SADLDCDPI [5T4 9-mer peptide 170 (SADLDCDPI)] | 4 % of positive control |
| DRLTCAYPE [5T4 9-mer peptide 160 (DRLTCAYPE)] | 5 % of positive control |
| EGYHYRYEI [5T4 9-mer peptide 199 (EGYHYRYEI)] | 0 % of positive control |
| NIRDACRDH [5T4 9-mer peptide 194 (NIRDACRDH)] | 0 % of positive control |
| VQGKDRLTC [5T4 9-mer peptide 158 (VQGKDRLTC)] | 6 % of positive control |

Target: T4, MHC class I molecule B*0702 (biotin (bound to streptavidin-coated plate))
T4 construct: iTopia monomer stripped of placeholder peptide and b2M, then reconstituted with test peptide and fresh b2M; also called B7; HLA-B7
Assay: iTopia peptide binding assay
Method in brief: as §1

| Binder | binding, % of positive control peptide |
| --- | --- |
| DCDPILPPS [5T4 9-mer peptide 172 (DCDPILPPS)] | 0 % of positive control |
| DPILPPSLQ [5T4 9-mer peptide 173 (DPILPPSLQ)] | 0 % of positive control |
| ETEVVQGKD [5T4 9-mer peptide 156 (ETEVVQGKD)] | 1 % of positive control |
| LELNSADLD [5T4 9-mer peptide 168 (LELNSADLD)] | 3 % of positive control |
| ACRDHMEGY [5T4 9-mer peptide 196 (ACRDHMEGY)] | 7 % of positive control |
| RDHMEGYHY [5T4 9-mer peptide 197 (RDHMEGYHY)] | 5 % of positive control |
| LGIVLALIG [5T4 9-mer peptide 180 (LGIVLALIG)] | 0 % of positive control |
| LTCAYPEKM [5T4 9-mer peptide 161 (LTCAYPEKM)] | 6 % of positive control |
| CAYPEKMRN [5T4 9-mer peptide 162 (CAYPEKMRN)] | 3 % of positive control |
| INADPRLTN [5T4 9-mer peptide 203 (INADPRLTN)] | 4 % of positive control |
| LNSADLDCD [5T4 9-mer peptide 169 (LNSADLDCD)] | 0 % of positive control |
| GAIFLLVLY [5T4 9-mer peptide 184 (GAIFLLVLY)] | 0 % of positive control |
| DLDCDPILP [5T4 9-mer peptide 171 (DLDCDPILP)] | 3 % of positive control |
| YHYRYEINA [5T4 9-mer peptide 200 (YHYRYEINA)] | 5 % of positive control |
| IFLLVLYLN [5T4 9-mer peptide 185 (IFLLVLYLN)] | 2 % of positive control |
| KGIKKWMHN [5T4 9-mer peptide 190 (KGIKKWMHN)] | 6 % of positive control |
| MRNRVLLEL [5T4 9-mer peptide 165 (MRNRVLLEL)] | 13 % of positive control |
| PRLTNLSSN [5T4 9-mer peptide 205 (PRLTNLSSN)] | 11 % of positive control |
| YRYEINADP [5T4 9-mer peptide 201 (YRYEINADP)] | 3 % of positive control |
| GKDRLTCAY [5T4 9-mer peptide 159 (GKDRLTCAY)] | 4 % of positive control |
| SADLDCDPI [5T4 9-mer peptide 170 (SADLDCDPI)] | 3 % of positive control |
| DRLTCAYPE [5T4 9-mer peptide 160 (DRLTCAYPE)] | 3 % of positive control |
| EGYHYRYEI [5T4 9-mer peptide 199 (EGYHYRYEI)] | 4 % of positive control |
| NIRDACRDH [5T4 9-mer peptide 194 (NIRDACRDH)] | 6 % of positive control |
| VQGKDRLTC [5T4 9-mer peptide 158 (VQGKDRLTC)] | 6 % of positive control |

Target: T5, MHC class I molecule A*0201 (biotin (bound via biotin to streptavidin-coated plates))
T5 construct: also called A2; HLA-A2
Assay: iTopia affinity assay (ED50), peptide titration on plate-bound MHC
Method: The 9 mers were tested for Peptide Binding, Off Rate and Affinity using iTopia Epitope Discovery System in accordance with the manufacturer's instructions. Briefly, 96 well microtitre plates coated with MHC molecules representing different MHC alleles are used to identify candidate peptides. […] Determinations are performed in duplicate using an ELISA plate reader and included allele specific positive controls.
Dose-response curves of peptide binding to MHC were prepared by peptide titration to determine the ED50 measurement for each peptide. Values for the concentrations tested (in duplicate) were obtained as a percentage of the highest (9000×) concentration of the positive control peptide. A dose-response curve was generated using GraphPad Prism® curve fitting software, which automatically calculated the ED50 (in Molarity) for each peptide.

| Binder | EC50 |
| --- | --- |
| SSAPFLASA [5T4 9 mer peptide 22 (SSAPFLASA)] | 0.3 µM |
| FLTGNQLAV [5T4 9 mer peptide 49 (FLTGNQLAV)] | 1 µM |
| PLADLSPFA [5T4 9 mer peptide 77 (PLADLSPFA)] | 2 µM |
| PALCECSEA [5T4 9 mer peptide 32 (PALCECSEA)] | 4 µM |
| LDLSNNSLV [5T4 9 mer peptide 120 (LDLSNNSLV)] | 20 µM |
| GMVVAALLA [5T4 9 mer peptide 99 (GMVVAALLA)] | 0.6 µM |
| AFSGSNASV [5T4 9 mer peptide 81 (AFSGSNASV)] | 7 µM |
| ILNHIVPPE [5T4 9 mer peptide 90 (ILNHIVPPE)] | 6 µM |
